System: Escherichia coli TOP10
Experiment: shrunken log2 fold change of peptide-encoding DNA abundance (4.5 h post-induction vs induction); higher = less antimicrobial activity (less host growth inhibition)
Conditions: time post-induction: 4.5 h; library: site-saturation at positions 5, 18, 19, 20
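Note: peptides expressed intracellularly from a pBAD plasmid library in pooled LB shake-flask culture, induced with 0.3% L-arabinose, DNA abundance read by NGS, three biological replicates, DESeq2 with apeglm shrinkage.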

Row | Sequence | shrunken log2 fold change
1 | RRIRIRPPRLPRPRPRPCCKPRP | -0.398
2 | RRIRARPPRLPRPRPRPMGCPRP | 0.495
3 | RRIRDRPPRLPRPRPRPGYNPRP | -0.0937
4 | RRIRLRPPRLPRPRPRPARHPRP | 0.148
5 | RRIRFRPPRLPRPRPRPYIRPRP | -0.755
6 | RRIRPRPPRLPRPRPRPITKPRP | -0.0256
7 | RRIRERPPRLPRPRPRPDTFPRP | -0.00141
8 | RRIRNRPPRLPRPRPRPLQIPRP | -0.143
9 | RRIRSRPPRLPRPRPRPCQLPRP | -0.163
10 | RRIRERPPRLPRPRPRPNYDPRP | -0.873
11 | RRIRERPPRLPRPRPRPVMLPRP | 0.055
12 | RRIRMRPPRLPRPRPRPYDIPRP | 0.0444
13 | RRIRVRPPRLPRPRPRPCIRPRP | -0.198
14 | RRIRQRPPRLPRPRPRPLDAPRP | 0.109
15 | RRIRKRPPRLPRPRPRPVTGPRP | -0.0771
16 | RRIRLRPPRLPRPRPRPGACPRP | 0.264
17 | RRIRDRPPRLPRPRPRPVALPRP | 0.816
18 | RRIRDRPPRLPRPRPRPLNYPRP | -0.372
19 | RRIRLRPPRLPRPRPRPQGCPRP | 0.0879
20 | RRIRFRPPRLPRPRPRPENSPRP | -3.45e-05
21 | RRIRVRPPRLPRPRPRPMPVPRP | 0.00602
22 | RRIRHRPPRLPRPRPRPKLVPRP | -0.017
23 | RRIRKRPPRLPRPRPRPDNQPRP | -0.233
24 | RRIRGRPPRLPRPRPRPQIDPRP | 0.565
25 | RRIRPRPPRLPRPRPRPCADPRP | 0.213

Row | Sequence | shrunken log2 fold change
26 | RRIRIRPPRLPRPRPRPQNKPRP | -0.668
27 | RRIRKRPPRLPRPRPRPMMMPRP | 0.619
28 | RRIRVRPPRLPRPRPRPRFFPRP | 0.287
29 | RRIRSRPPRLPRPRPRPWCHPRP | -0.4
30 | RRIRRRPPRLPRPRPRPGYFPRP | -0.209
31 | RRIRMRPPRLPRPRPRPCGGPRP | 1.19
32 | RRIRNRPPRLPRPRPRPNTTPRP | -0.209
33 | RRIRQRPPRLPRPRPRPDPDPRP | -0.00136
34 | RRIRYRPPRLPRPRPRPIRVPRP | -0.0013
35 | RRIRARPPRLPRPRPRPFAKPRP | 0.349
36 | RRIRVRPPRLPRPRPRPDVGPRP | -0.13
37 | RRIRQRPPRLPRPRPRPIVCPRP | -0.137
38 | RRIRLRPPRLPRPRPRPCPTPRP | 0.0726
39 | RRIRNRPPRLPRPRPRPRKQPRP | 0.215
40 | RRIRDRPPRLPRPRPRPFTSPRP | -0.0273
41 | RRIRNRPPRLPRPRPRPSLDPRP | -0.258
42 | RRIRIRPPRLPRPRPRPCCMPRP | -0.614
43 | RRIRSRPPRLPRPRPRPWFDPRP | -0.271
44 | RRIRLRPPRLPRPRPRPPLIPRP | -0.258
45 | RRIRRRPPRLPRPRPRPSYIPRP | -0.416
46 | RRIRPRPPRLPRPRPRPHKTPRP | -0.0296
47 | RRIRRRPPRLPRPRPRPDDCPRP | 0.279
48 | RRIRFRPPRLPRPRPRPSLMPRP | -0.6
49 | RRIRIRPPRLPRPRPRPGREPRP | 0.311
50 | RRIRCRPPRLPRPRPRPRIWPRP | 0.0951

Row | Sequence | shrunken log2 fold change
51 | RRIRCRPPRLPRPRPRPTKWPRP | -0.121
52 | RRIRTRPPRLPRPRPRPGGVPRP | 0.346
53 | RRIRVRPPRLPRPRPRPCFYPRP | -0.511
54 | RRIRLRPPRLPRPRPRPYRYPRP | -0.254
55 | RRIRCRPPRLPRPRPRPDADPRP | 0.472
56 | RRIRGRPPRLPRPRPRPIKEPRP | -0.104
57 | RRIRMRPPRLPRPRPRPLCEPRP | 0.653
58 | RRIRHRPPRLPRPRPRPPNCPRP | -0.19
59 | RRIRGRPPRLPRPRPRPIPRPRP | 0.519
60 | RRIRNRPPRLPRPRPRPTQQPRP | 0.244
61 | RRIRCRPPRLPRPRPRPAECPRP | -0.223
62 | RRIRYRPPRLPRPRPRPWCDPRP | -0.733
63 | RRIRQRPPRLPRPRPRPVDGPRP | -0.13
64 | RRIRQRPPRLPRPRPRPNSRPRP | -0.0312
65 | RRIRSRPPRLPRPRPRPCMYPRP | -0.0328
66 | RRIRQRPPRLPRPRPRPAAWPRP | 0.245
67 | RRIRYRPPRLPRPRPRPTIQPRP | -1.09
68 | RRIRWRPPRLPRPRPRPFLSPRP | -0.0328
69 | RRIRMRPPRLPRPRPRPFWIPRP | 0.00154
70 | RRIRARPPRLPRPRPRPRNLPRP | -0.0356
71 | RRIRQRPPRLPRPRPRPVKPPRP | -0.00215
72 | RRIRSRPPRLPRPRPRPVTWPRP | 0.0066
73 | RRIRRRPPRLPRPRPRPGPCPRP | 0.0678
74 | RRIRWRPPRLPRPRPRPTCEPRP | 0.752
75 | RRIRVRPPRLPRPRPRPSLCPRP | -0.233

Row | Sequence | shrunken log2 fold change
76 | RRIRYRPPRLPRPRPRPEQFPRP | -0.14
77 | RRIRYRPPRLPRPRPRPLVWPRP | 0.00227
78 | RRIRIRPPRLPRPRPRPNYNPRP | -1.12
79 | RRIRYRPPRLPRPRPRPAQLPRP | -0.392
80 | RRIRFRPPRLPRPRPRPRWSPRP | 0.112
81 | RRIRCRPPRLPRPRPRPPNAPRP | 0.262
82 | RRIRTRPPRLPRPRPRPASRPRP | 0.279
83 | RRIRDRPPRLPRPRPRPYNHPRP | -0.704
84 | RRIRKRPPRLPRPRPRPYPHPRP | -0.207
85 | RRIRIRPPRLPRPRPRPIVSPRP | -0.102
86 | RRIRCRPPRLPRPRPRPWFEPRP | -0.45
87 | RRIRKRPPRLPRPRPRPTTVPRP | 0.331
88 | RRIRGRPPRLPRPRPRPSWKPRP | 0.437
89 | RRIRNRPPRLPRPRPRPYYRPRP | 0.0545
90 | RRIRLRPPRLPRPRPRPYKWPRP | -0.0271
91 | RRIRIRPPRLPRPRPRPSYQPRP | -1.32
92 | RRIRKRPPRLPRPRPRPRYVPRP | 0.0611
93 | RRIRKRPPRLPRPRPRPSAGPRP | 0.227
94 | RRIRWRPPRLPRPRPRPINNPRP | -0.659
95 | RRIRVRPPRLPRPRPRPNDQPRP | -0.0759
96 | RRIRLRPPRLPRPRPRPRKCPRP | 0.309
97 | RRIRPRPPRLPRPRPRPHARPRP | 0.111
98 | RRIRCRPPRLPRPRPRPREQPRP | 0.312
99 | RRIRDRPPRLPRPRPRPDCDPRP | 0.122
100 | RRIRGRPPRLPRPRPRPWYWPRP | 0.187

Row | Sequence | shrunken log2 fold change
101 | RRIRLRPPRLPRPRPRPFYAPRP | -0.279
102 | RRIRQRPPRLPRPRPRPGLQPRP | -0.0156
103 | RRIRCRPPRLPRPRPRPWKQPRP | -0.181
104 | RRIRHRPPRLPRPRPRPFLEPRP | -0.0353
105 | RRIRNRPPRLPRPRPRPEVRPRP | 0.292
106 | RRIRCRPPRLPRPRPRPSLEPRP | -0.136
107 | RRIRARPPRLPRPRPRPMTHPRP | 0.151
108 | RRIRYRPPRLPRPRPRPCRLPRP | 0.0249
109 | RRIRQRPPRLPRPRPRPQQYPRP | -0.0402
110 | RRIRNRPPRLPRPRPRPVEFPRP | -0.00441
111 | RRIRWRPPRLPRPRPRPQSLPRP | 0.00606
112 | RRIRFRPPRLPRPRPRPLTNPRP | 0.0389
113 | RRIRRRPPRLPRPRPRPKGDPRP | 0.3
114 | RRIRTRPPRLPRPRPRPWHAPRP | 0.093
115 | RRIRWRPPRLPRPRPRPEWYPRP | 0.0654
116 | RRIRLRPPRLPRPRPRPYSSPRP | -0.203
117 | RRIRFRPPRLPRPRPRPRCVPRP | -0.0244
118 | RRIRARPPRLPRPRPRPGDQPRP | 0.804
119 | RRIRGRPPRLPRPRPRPIHVPRP | -0.315
120 | RRIRQRPPRLPRPRPRPINNPRP | -0.803
121 | RRIRPRPPRLPRPRPRPTTCPRP | 0.262
122 | RRIRFRPPRLPRPRPRPYRVPRP | -0.702
123 | RRIRFRPPRLPRPRPRPRAEPRP | 0.363
124 | RRIRGRPPRLPRPRPRPHASPRP | 0.585
125 | RRIRWRPPRLPRPRPRPYANPRP | -0.399

Row | Sequence | shrunken log2 fold change
126 | RRIRWRPPRLPRPRPRPEDMPRP | 0.282
127 | RRIRLRPPRLPRPRPRPGMHPRP | 0.299
128 | RRIRLRPPRLPRPRPRPMAHPRP | -0.944
129 | RRIRFRPPRLPRPRPRPNEWPRP | 0.0686
130 | RRIRGRPPRLPRPRPRPPAVPRP | 1.27
131 | RRIRHRPPRLPRPRPRPAWMPRP | 0.574
132 | RRIRDRPPRLPRPRPRPILFPRP | -0.185
133 | RRIRKRPPRLPRPRPRPHAVPRP | 0.132
134 | RRIRVRPPRLPRPRPRPFTIPRP | -0.085
135 | RRIRLRPPRLPRPRPRPFMCPRP | -0.0925
136 | RRIRQRPPRLPRPRPRPLKTPRP | 0.0342
137 | RRIRFRPPRLPRPRPRPIEPPRP | 0.242
138 | RRIRCRPPRLPRPRPRPHVEPRP | -0.421
139 | RRIRNRPPRLPRPRPRPWCMPRP | -0.312
140 | RRIRNRPPRLPRPRPRPQNVPRP | -0.0764
141 | RRIRTRPPRLPRPRPRPDHIPRP | -0.242
142 | RRIRGRPPRLPRPRPRPGPLPRP | 0.363
143 | RRIRDRPPRLPRPRPRPQVSPRP | 0.0416
144 | RRIRFRPPRLPRPRPRPLDNPRP | 0.0244
145 | RRIRTRPPRLPRPRPRPDQTPRP | -0.0468
146 | RRIRCRPPRLPRPRPRPVNTPRP | -0.259
147 | RRIRVRPPRLPRPRPRPVLTPRP | 0.146
148 | RRIRCRPPRLPRPRPRPHARPRP | 0.204
149 | RRIRHRPPRLPRPRPRPVMHPRP | 0.000945
150 | RRIRTRPPRLPRPRPRPLYFPRP | -0.418
